{"source": "patent US20210355194A1", "about": "(TWIST BIOSCIENCE, published 2021)", "key": {"human ACE2": {"molecular_target": "human ACE2 (human, UniProt Q9BYF1 18-740)", "sequence (Q9BYF1 18-740 limits assumed)": "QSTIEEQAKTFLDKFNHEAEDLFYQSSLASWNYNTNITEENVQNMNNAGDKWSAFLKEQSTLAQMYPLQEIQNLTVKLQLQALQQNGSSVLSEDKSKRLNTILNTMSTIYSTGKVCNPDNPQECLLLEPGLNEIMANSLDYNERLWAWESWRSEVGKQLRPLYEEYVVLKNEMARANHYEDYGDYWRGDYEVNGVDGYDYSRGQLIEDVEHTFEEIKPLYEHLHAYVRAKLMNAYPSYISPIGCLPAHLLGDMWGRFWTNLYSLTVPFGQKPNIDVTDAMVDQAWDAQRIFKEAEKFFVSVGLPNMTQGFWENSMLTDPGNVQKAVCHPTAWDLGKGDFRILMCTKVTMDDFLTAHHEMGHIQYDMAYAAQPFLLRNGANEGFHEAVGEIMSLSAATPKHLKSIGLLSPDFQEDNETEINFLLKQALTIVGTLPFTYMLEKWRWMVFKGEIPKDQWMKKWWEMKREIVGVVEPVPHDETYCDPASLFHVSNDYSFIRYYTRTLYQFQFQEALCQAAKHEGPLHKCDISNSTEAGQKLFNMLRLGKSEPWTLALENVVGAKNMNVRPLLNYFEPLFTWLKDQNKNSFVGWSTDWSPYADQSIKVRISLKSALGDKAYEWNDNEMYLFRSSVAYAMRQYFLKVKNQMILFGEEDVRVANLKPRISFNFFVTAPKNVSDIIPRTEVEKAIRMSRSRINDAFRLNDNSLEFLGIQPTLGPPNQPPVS"}, "[1]": {"molecular_target": "T1, Acro SARS-CoV-2 (COVID-19) S1 protein (SARS-CoV-2, UniProt P0DTC2 16-685)", "T1 construct": "also called SARS-CoV-2 S1", "assay": "SPR"}, "[2]": {"molecular_target": "SARS-COV2-S1 RBD (mouse IgG2Fc tag) (SARS-CoV-2, UniProt P0DTC2 319-537)", "assay": "FACS, S1 RBD-mFc on Vero E6 (ACE2)"}, "[3]": {"molecular_target": "T2, Acro SARS-CoV-2 (COVID-19) S1 protein (SARS-CoV-2, UniProt P0DTC2 16-685)", "T2 construct": "also called SARS-CoV-2 S1", "assay": "SPR", "remark": "listed apart in the source"}, "[4]": {"molecular_target": "T3, SARS-COV2-S1 RBD (mouse IgG2Fc tag) (SARS-CoV-2, UniProt P0DTC2 319-537)", "assay": "FACS, blocks S1 RBD-mFc binding to ACE2 on Vero E6"}, "[5]": {"molecular_target": "T3, SARS-COV2-S1 RBD (mouse IgG2Fc tag)", "assay": "column not explained; likely FACS, S1 RBD on Vero E6"}, "[6]": {"molecular_target": "T3, SARS-COV2-S1 RBD (mouse IgG2Fc tag)"}}, "note": "Where two headings read alike, the source gives them in different places.", "data": [{"binder": "4-52 (VHH) VHH: EVQLVESGGGLVQPGGSLRLSCAASGRSFSNSVMGWFRQAPGKEREFVARITWNGGSTYYADSVKGRFTISADNSKNTAYLQMNSLKPEDTAVYYCATTENPNPRWGQGTLVTVSS", "values": [{"measurement": "IC50", "setting": "human ACE2", "value": 0.35, "unit": "nM"}]}, {"binder": "4-49 (VHH) VHH: EVQLVESGGGLVQPGGSLRLSCAASGRTFGDYIMGWFRQAPGKERESVAAINWSAGYTAYADSVKGRFTISADNSKNTAYLQMNSLKPEDTAVYYCARASPNTGWHFDHWGQGTLVTVSS", "values": [{"measurement": "IC50", "setting": "human ACE2", "value": 58, "unit": "nM"}]}, {"binder": "4-121 (VHH) VHH: EVQLVESGGGLVQPGGSLRLSCAASGTAASFNPMGWFRQAPGKEREFVAAITSGGSTNYADSVKGRFTISADNSKNTAYLQMNSLKPEDTAVYYCAAIAYEEGVYRWDWGQGTLVTVSS", "values": [{"measurement": "IC50", "setting": "human ACE2", "value": 0.91, "unit": "nM"}]}, {"binder": "variant 5-20 (Fc fusion, VHH-Fc) VHH: EVQLVESGGGLVQPGGSLRLSCAASGRTIVPYTMGWFRQAPGKERELVAAISPSAFTEYADSVKGRFTISADNSKNTAYLQMNSLKPEDTAVYYCAARRWGYDWGQGTLVTVSS", "values": [{"measurement": "Kd", "setting": "[1]", "value": 14.3, "unit": "nM"}, {"measurement": "Competition Factor", "setting": "[2]", "value": 12.4}]}, {"binder": "variant 5-37 (Fc fusion, VHH-Fc) VHH: EVQLVESGGGLVQPGGSLRLSCAASGSTFSINAMGWFRQAPGKEREFVGGISRSGATTNYADSVKGRFTISADNSKNTAYLQMNSLKPEDTAVYYCAADGVPEYSDYASGPVWGQGTLVTVSS", "values": [{"measurement": "Kd", "setting": "[1]", "value": 30.2, "unit": "nM"}, {"measurement": "Competition Factor", "setting": "[2]", "value": 8.19}]}, {"binder": "variant 6-26 (Fc fusion, VHH-Fc) VHH: EVQLVESGGGLVQPGGSLRLSCAASGDTFSTSWMGWFRQAPGKEREFVATINTGGGTNYADSVKGRFTISADNSKNTAYLQMNSLKPEDTAVYYCARVTTSFDYWGQGTLVTVSS", "values": [{"measurement": "Kd", "setting": "[1]", "value": 38.7, "unit": "nM"}, {"measurement": "Competition Factor", "setting": "[2]", "value": 6.41}]}, {"binder": "variant 6-20 (Fc fusion, VHH-Fc) VHH: EVQLVESGGGLVQPGGSLRLSCAASGSTLPYHAMGWFRQAPGKEREFVAAITWNGASTSYADSVKGRFTISADNSKNTAYLQMNSLKPEDTAVYYCARDRYYDTSASYFESETWGQGTLVTVSS", "values": [{"measurement": "Kd", "setting": "[1]", "value": 20.9, "unit": "nM"}, {"measurement": "Competition Factor", "setting": "[2]", "value": 9.95}]}, {"binder": "variant 6-55 (Fc fusion, VHH-Fc) VHH: EVQLVESGGGLVQPGGSLRLSCAASGFTMSSSWMGWFRQAPGKEREFVARITSGGSTGYADSVKGRFTISADNSKNTAYLQMNSLKPEDTAVYYCASVDGYFDYWGQGTLVTVSS", "values": [{"measurement": "Kd", "setting": "[1]", "value": 25.2, "unit": "nM"}, {"measurement": "Competition Factor", "setting": "[2]", "value": 7.98}]}, {"binder": "variant 6-60 (Fc fusion, VHH-Fc) VHH: EVQLVESGGGLVQPGGSLRLSCAASGDTYGSYWMGWFRQAPGKEREFVATISQSGAATAYADSVKGRFTISADNSKNTAYLQMNSLKPEDTAVYYCAGLLRYSGTYYDAFDVWGQGTLVTVSS", "values": [{"measurement": "Kd", "setting": "[1]", "value": 20.1, "unit": "nM"}, {"measurement": "Competition Factor", "setting": "[2]", "value": 12.6}]}, {"binder": "variant 6-73 (Fc fusion, VHH-Fc) VHH: EVQLVESGGGLVQPGGSLRLSCAASGHTFSGYAMGWFRQAPGKEREFVAVITREGSTYYADSVKGRFTISADNSKNTAYLQMNSLKPEDTAVYYCARLGGEGFDYWGQGTLVTVSS", "values": [{"measurement": "Kd", "setting": "[1]", "value": 103, "unit": "nM"}, {"measurement": "Competition Factor", "setting": "[2]", "value": 7.99}]}, {"binder": "variant 6-76 (Fc fusion, VHH-Fc) VHH: EVQLVESGGGLVQPGGSLRLSCAASGLAFDFDGMGWFRQAPGKEREGVAAINSGGSTYYADSVKGRFTISADNSKNTAYLQMNSLKPEDTAVYYCARFFRAHDYWGQGTLVTVSS", "values": [{"measurement": "Kd", "setting": "[1]", "value": 33.5, "unit": "nM"}, {"measurement": "Competition Factor", "setting": "[2]", "value": 9.96}]}, {"binder": "variant 6-78 (Fc fusion, VHH-Fc) VHH: EVQLVESGGGLVQPGGSLRLSCAASGRTYDAMGWFRQAPGKEREFVASVTSGGYTHYADSVKGRFTISADNSKNTAYLQMNSLKPEDTAVYYCAKFGRKIVGATELDYWGQGTLVTVSS", "values": [{"measurement": "Kd", "setting": "[1]", "value": 18.9, "unit": "nM"}, {"measurement": "Competition Factor", "setting": "[2]", "value": 9.27}]}, {"binder": "variant 6-26 (Fc fusion) VHH: EVQLVESGGGLVQPGGSLRLSCAASGDTFSTSWMGWFRQAPGKEREFVATINTGGGTNYADSVKGRFTISADNSKNTAYLQMNSLKPEDTAVYYCARVTTSFDYWGQGTLVTVSS", "values": [{"measurement": "Kd", "setting": "[3]", "value": 38.7, "unit": "nM"}, {"measurement": "IC50", "setting": "[4]", "value": 1.07, "unit": "nM"}, {"measurement": "MFI Fold Decrease", "setting": "[5]", "value": 6.41, "unit": "fold"}]}, {"binder": "variant 6-78 (Fc fusion) VHH: EVQLVESGGGLVQPGGSLRLSCAASGRTYDAMGWFRQAPGKEREFVASVTSGGYTHYADSVKGRFTISADNSKNTAYLQMNSLKPEDTAVYYCAKFGRKIVGATELDYWGQGTLVTVSS", "values": [{"measurement": "Kd", "setting": "[3]", "value": 18.9, "unit": "nM"}, {"measurement": "IC50", "setting": "[4]", "value": 0.743, "unit": "nM"}, {"measurement": "MFI Fold Decrease", "setting": "[5]", "value": 9.27, "unit": "fold"}]}, {"binder": "variant 6-60 (Fc fusion) VHH: EVQLVESGGGLVQPGGSLRLSCAASGDTYGSYWMGWFRQAPGKEREFVATISQSGAATAYADSVKGRFTISADNSKNTAYLQMNSLKPEDTAVYYCAGLLRYSGTYYDAFDVWGQGTLVTVSS", "values": [{"measurement": "Kd", "setting": "[3]", "value": 20.1, "unit": "nM"}, {"measurement": "IC50", "setting": "[4]", "value": 1.31, "unit": "nM"}, {"measurement": "MFI Fold Decrease", "setting": "[5]", "value": 12.6, "unit": "fold"}]}, {"binder": "variant 6-20 (Fc fusion) VHH: EVQLVESGGGLVQPGGSLRLSCAASGSTLPYHAMGWFRQAPGKEREFVAAITWNGASTSYADSVKGRFTISADNSKNTAYLQMNSLKPEDTAVYYCARDRYYDTSASYFESETWGQGTLVTVSS", "values": [{"measurement": "Kd", "setting": "[3]", "value": 20.9, "unit": "nM"}, {"measurement": "IC50", "setting": "[4]", "value": 0.76, "unit": "nM"}, {"measurement": "MFI Fold Decrease", "setting": "[5]", "value": 9.95, "unit": "fold"}]}, {"binder": "variant 6-55 (Fc fusion) VHH: EVQLVESGGGLVQPGGSLRLSCAASGFTMSSSWMGWFRQAPGKEREFVARITSGGSTGYADSVKGRFTISADNSKNTAYLQMNSLKPEDTAVYYCASVDGYFDYWGQGTLVTVSS", "values": [{"measurement": "Kd", "setting": "[3]", "value": 25.2, "unit": "nM"}, {"measurement": "IC50", "setting": "[4]", "value": 0.97, "unit": "nM"}, {"measurement": "MFI Fold Decrease", "setting": "[5]", "value": 7.98, "unit": "fold"}]}, {"binder": "variant 6-73 (Fc fusion) VHH: EVQLVESGGGLVQPGGSLRLSCAASGHTFSGYAMGWFRQAPGKEREFVAVITREGSTYYADSVKGRFTISADNSKNTAYLQMNSLKPEDTAVYYCARLGGEGFDYWGQGTLVTVSS", "values": [{"measurement": "Kd", "setting": "[3]", "value": 103, "unit": "nM"}, {"measurement": "IC50", "setting": "[4]", "value": 1.01, "unit": "nM"}, {"measurement": "MFI Fold Decrease", "setting": "[5]", "value": 7.99, "unit": "fold"}]}, {"binder": "variant 6-76 (Fc fusion) VHH: EVQLVESGGGLVQPGGSLRLSCAASGLAFDFDGMGWFRQAPGKEREGVAAINSGGSTYYADSVKGRFTISADNSKNTAYLQMNSLKPEDTAVYYCARFFRAHDYWGQGTLVTVSS", "values": [{"measurement": "Kd", "setting": "[3]", "value": 33.5, "unit": "nM"}, {"measurement": "IC50", "setting": "[4]", "value": 1.11, "unit": "nM"}, {"measurement": "MFI Fold Decrease", "setting": "[5]", "value": 9.96, "unit": "fold"}]}, {"binder": "variant 5-55 (Fc fusion) VHH: EVQLVESGGGLVQPGGSLRLSCAASGIDVNRNAMGWFRQAPGKEREFVAAITWSGGWRYYADSVKGRFTISADNSKNTAYLQMNSLKPEDTAVYYCATTFGDAGIPDQYDFGWGQGTLVTVSS", "values": [{"measurement": "IC50", "setting": "[6]", "value": 1.45, "unit": "nM"}]}, {"binder": "variant 5-15 (Fc fusion) VHH: EVQLVESGGGLVQPGGSLRLSCAASGFTFDGAAMGWFRQAPGKEREFVATIRWTNSTDYADSVKGRFTISADNSKNTAYLQMNSLKPEDTAVYYCARGRYGIVERWGQGTLVTVSS", "values": [{"measurement": "IC50", "setting": "[6]", "value": 2.19, "unit": "nM"}]}, {"binder": "variant 5-29 (Fc fusion) VHH: EVQLVESGGGLVQPGGSLRLSCAASGFTFDDYPMGWFRQAPGKEREGVASVLRGGYTWYADSVKGRFTISADNSKNTAYLQMNSLKPEDTAVYYCAKDWATGLAWGQGTLVTVSS", "values": [{"measurement": "IC50", "setting": "[6]", "value": 2.19, "unit": "nM"}]}, {"binder": "variant 5-49 (Fc fusion) VHH: EVQLVESGGGLVQPGGSLRLSCAASGRTSTVNGMGWFRQAPGKEREFVASISQSGAATAYADSVKGRFTISADNSKNTAYLQMNSLKPEDTAVYYCAADRTYSYSSTGYYWGQGTLVTVSS", "values": [{"measurement": "IC50", "setting": "[6]", "value": 5.61, "unit": "nM"}]}]}
